Source: patent publication US20220195012A1
Changes are numbered by the printed parent chain. In names and notes the source's numbering stands.

B1: D2D3M3M4 (L205K) (protein)
chain: CEVPTRLNSASLKQPYITQNYFPVGTVVEYECRPGYRREPSLSPKLTCLQNLKWSTAVEFCKKKSCPNPGEIRNGQIDVPGGILFGATISFSCNTGYKLFGSTSSFCKISGSSVQWSDPLPECREIYCTPPPKIKNGKHTFSEVEVFEYLDAVTYSCDPAPGPDPFSLIGESTIYCGDNSVWSRAAPECKVVKCRFPVVENGKQISGFGKKFYYKATVMFECDKGFYLDGSDTIVCDSNSTWDPPVPKCLKVL
B2: D2D3M3M4 (S199K) (protein)
chain: B1 chain with S102K, K108L
B3: D2D3M3M4 (F197I) (protein)
chain: B1 chain with F100I, K108L
B4: D2D3M3M4 (Multi-1) (protein)
chain: B1 chain with K108L, E122I, R124E, E125K, I126V, Y127L
B5: D2D3M3M4 (T200Y) (protein)
chain: B1 chain with T103Y, K108L
B6: D2D3M3M4 (P216K) (protein)
chain: B1 chain with K108L, P119K
B7: D2D3M3M4 (T192E) (protein)
chain: B1 chain with T95E, K108L
B8: D2D3M3M4 (K195Y) (protein)
chain: B1 chain with K98Y, K108L
B9: D2D3M3M4 (Multi-5) or DCP (decay-cofactor protein) (protein)
chain: B1 chain with F100I, K108L, P119K, E122I, R124E, E125K, I126V, Y127L
B10: D2M2-4 (Tetra) (protein)
chain: CEVPTRLNSASLKQPYITQNYFPVGTVVEYECRPGYRRQPSLSPKLTCLQNLKWSTAVEFCKKKSCPNIRDPLNGQAVPANGTYEFGYQMHFICNEGYYLAGEEILYCELKGSVAIWSGKPPICEKVKCTPPPKIKNGKHTFSEVEVFEYLDAVTYSCDPAPGPDPFSLIGESTIYCGDNSVWSRAAPECKVVKCRFPVVENGKQISGFGKKFYYKATVMFECDKGFYLDGSDTIVCDSNSTWDPPVPKCLKVL

molecular target: C4b (UniProt P0C0L4); test: cell-based or functional assay
Sequence (P0C0L4 757-1446 limits assumed, chain 1 of 3): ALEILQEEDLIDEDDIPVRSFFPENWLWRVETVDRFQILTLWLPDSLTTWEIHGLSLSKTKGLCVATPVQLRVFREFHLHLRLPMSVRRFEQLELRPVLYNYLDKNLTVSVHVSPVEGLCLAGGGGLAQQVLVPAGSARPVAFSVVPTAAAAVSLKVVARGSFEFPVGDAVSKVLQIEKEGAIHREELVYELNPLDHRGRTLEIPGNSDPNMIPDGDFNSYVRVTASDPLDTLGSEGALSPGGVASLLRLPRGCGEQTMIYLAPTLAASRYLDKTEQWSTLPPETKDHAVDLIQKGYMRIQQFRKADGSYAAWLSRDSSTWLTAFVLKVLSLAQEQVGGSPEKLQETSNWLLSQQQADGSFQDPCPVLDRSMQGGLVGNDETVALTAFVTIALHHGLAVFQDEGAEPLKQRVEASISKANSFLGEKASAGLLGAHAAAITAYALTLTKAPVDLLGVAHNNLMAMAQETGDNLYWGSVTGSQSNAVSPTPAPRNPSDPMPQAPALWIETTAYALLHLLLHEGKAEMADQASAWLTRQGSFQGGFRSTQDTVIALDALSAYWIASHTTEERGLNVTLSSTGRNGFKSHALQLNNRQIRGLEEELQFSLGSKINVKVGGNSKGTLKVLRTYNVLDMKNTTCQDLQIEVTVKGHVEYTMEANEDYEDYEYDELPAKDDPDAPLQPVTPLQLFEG
Sequence (P0C0L4 20-675 limits assumed, chain 2 of 3): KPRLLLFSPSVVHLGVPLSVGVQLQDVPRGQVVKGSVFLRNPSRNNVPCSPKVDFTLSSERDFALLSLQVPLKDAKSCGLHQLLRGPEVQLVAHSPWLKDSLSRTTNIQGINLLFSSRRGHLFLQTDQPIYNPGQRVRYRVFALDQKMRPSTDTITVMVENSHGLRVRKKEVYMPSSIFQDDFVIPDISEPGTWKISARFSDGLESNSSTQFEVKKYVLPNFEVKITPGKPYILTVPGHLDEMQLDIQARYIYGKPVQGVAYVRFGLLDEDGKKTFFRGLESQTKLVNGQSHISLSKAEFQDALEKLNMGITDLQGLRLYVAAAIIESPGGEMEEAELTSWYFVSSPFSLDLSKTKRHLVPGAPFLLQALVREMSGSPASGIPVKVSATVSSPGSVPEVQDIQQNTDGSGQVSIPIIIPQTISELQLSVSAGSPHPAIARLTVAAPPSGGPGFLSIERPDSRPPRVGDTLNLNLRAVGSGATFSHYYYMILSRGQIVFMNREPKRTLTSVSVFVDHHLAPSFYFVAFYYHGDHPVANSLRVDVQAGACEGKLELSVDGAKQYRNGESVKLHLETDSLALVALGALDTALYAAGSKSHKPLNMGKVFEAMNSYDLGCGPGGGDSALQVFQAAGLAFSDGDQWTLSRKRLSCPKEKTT
Sequence (P0C0L4 1454-1744 limits assumed, chain 3 of 3): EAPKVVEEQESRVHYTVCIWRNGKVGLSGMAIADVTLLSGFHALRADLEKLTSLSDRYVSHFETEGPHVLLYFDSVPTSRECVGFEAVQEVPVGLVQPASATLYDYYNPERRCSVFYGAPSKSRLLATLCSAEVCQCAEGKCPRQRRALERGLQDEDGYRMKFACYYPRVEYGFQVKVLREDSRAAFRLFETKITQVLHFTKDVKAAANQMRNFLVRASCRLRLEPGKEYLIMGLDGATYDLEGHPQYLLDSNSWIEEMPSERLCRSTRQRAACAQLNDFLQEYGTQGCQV

Binder	C4b CFA: Time (min.) for 50% cleavage of C4B α′-chain [min]	Relative C4b CFA
B1	433	1.07
B2	181	2.5
B3	96.7	7
B4	493	1.07
B5	513	0.9
B6	93.3	5
B7	268	8.7
B8	> 540	< 0.85
B9	3.1	3

molecular target: AP C3-convertase (C3bBb) (UniProt P01024); test: cell-based or functional assay
Sequence (P01024 23-667 limits assumed, chain 1 of 3): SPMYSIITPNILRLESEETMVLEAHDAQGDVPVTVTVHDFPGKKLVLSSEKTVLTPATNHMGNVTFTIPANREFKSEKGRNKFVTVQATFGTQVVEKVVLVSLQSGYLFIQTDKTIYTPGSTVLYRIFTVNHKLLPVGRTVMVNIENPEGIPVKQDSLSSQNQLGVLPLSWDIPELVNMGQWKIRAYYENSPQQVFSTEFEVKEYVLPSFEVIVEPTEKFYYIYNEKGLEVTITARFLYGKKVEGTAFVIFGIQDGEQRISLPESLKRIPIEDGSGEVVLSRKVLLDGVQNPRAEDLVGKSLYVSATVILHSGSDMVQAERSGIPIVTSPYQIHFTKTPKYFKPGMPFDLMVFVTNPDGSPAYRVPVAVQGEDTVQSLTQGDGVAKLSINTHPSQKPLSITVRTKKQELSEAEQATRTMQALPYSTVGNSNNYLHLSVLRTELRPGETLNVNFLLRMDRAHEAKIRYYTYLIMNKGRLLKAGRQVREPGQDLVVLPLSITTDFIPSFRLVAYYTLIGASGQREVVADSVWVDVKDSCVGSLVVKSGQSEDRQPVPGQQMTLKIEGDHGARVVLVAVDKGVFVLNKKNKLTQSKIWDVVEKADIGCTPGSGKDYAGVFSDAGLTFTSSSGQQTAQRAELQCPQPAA
Sequence (P01024 749-1663 limits assumed, chain 2 of 3): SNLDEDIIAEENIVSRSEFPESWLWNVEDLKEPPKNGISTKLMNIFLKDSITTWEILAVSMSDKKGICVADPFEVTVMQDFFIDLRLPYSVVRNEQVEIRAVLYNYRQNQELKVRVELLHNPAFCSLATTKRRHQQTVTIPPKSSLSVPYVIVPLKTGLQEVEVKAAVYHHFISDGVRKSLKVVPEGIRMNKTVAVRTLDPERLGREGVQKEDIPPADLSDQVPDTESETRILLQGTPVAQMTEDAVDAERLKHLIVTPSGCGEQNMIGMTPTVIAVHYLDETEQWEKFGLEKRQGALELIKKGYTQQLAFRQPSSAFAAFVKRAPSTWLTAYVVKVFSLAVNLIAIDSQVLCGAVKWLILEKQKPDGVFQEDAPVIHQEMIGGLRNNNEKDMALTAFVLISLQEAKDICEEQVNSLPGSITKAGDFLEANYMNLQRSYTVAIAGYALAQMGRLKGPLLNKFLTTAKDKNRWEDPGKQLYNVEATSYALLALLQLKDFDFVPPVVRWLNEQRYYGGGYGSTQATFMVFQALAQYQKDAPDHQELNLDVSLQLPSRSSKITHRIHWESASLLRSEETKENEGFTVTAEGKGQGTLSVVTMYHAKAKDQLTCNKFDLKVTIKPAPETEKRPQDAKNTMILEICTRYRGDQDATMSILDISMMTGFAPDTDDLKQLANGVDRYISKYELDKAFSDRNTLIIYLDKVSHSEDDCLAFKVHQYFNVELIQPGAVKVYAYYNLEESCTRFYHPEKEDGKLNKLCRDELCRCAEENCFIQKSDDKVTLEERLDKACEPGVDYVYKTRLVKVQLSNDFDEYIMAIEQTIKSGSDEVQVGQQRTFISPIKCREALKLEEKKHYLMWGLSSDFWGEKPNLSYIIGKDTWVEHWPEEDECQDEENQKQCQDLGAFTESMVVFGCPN
Sequence (P00751 260-764 limits assumed, chain 3 of 3, further chain): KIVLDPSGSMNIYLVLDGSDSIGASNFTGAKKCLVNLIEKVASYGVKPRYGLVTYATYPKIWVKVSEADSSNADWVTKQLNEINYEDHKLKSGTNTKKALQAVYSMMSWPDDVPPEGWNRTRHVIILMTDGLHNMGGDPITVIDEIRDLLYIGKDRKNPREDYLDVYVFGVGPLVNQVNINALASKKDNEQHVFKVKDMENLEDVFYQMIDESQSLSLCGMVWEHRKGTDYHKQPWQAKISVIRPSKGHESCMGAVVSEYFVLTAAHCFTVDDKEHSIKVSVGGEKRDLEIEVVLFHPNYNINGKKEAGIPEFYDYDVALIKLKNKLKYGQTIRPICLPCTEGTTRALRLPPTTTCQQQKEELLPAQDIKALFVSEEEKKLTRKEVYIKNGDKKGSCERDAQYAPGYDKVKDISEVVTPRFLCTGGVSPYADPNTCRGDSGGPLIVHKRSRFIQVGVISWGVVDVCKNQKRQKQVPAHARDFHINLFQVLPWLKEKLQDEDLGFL

Binder	AP-DAA, fold increase compared to D2M2-4 [fold]	AP-DAA, fold less compared to DAF [fold]	AP-DAA IC50 [µM]	Relative AP-DAA
B10	12.5	138	–	–
B1	–	–	> 0.01	0.2
B2	–	–	0.0065	0.3
B3	–	–	0.0044	0.3
B4	–	–	0.0019	1.1
B5	–	–	0.0037	0.56
B6	–	–	0.0034	0.6
B7	–	–	0.0025	0.9
B8	–	–	> 0.01	0.2
B9	–	–	0.0024	1.3

molecular target: C3b (UniProt P01024); test: cell-based or functional assay
Sequence (P01024 23-667 limits assumed, chain 1 of 2): as the sequence (P01024 23-667 limits assumed, chain 1 of 3) above
Sequence (P01024 749-1663 limits assumed, chain 2 of 2): as the sequence (P01024 749-1663 limits assumed, chain 2 of 3) above

Binder	C3b CFA: Time (min.) for 50% cleavage of C3B α′-chain [min]	Relative C3b CFA
B1	104	0.8
B2	18.9	4.4
B3	49.8	1.7
B4	27.3	3
B5	103	0.8
B6	30.1	2.7
B7	74.3	1.1
B9	3.3	1.5

substrate: CP C3-convertase (C4b2a) (UniProt P0C0L4); test: cell-based or functional assay
Sequence (P0C0L4 757-1446 limits assumed, chain 1 of 4): as the sequence (P0C0L4 757-1446 limits assumed, chain 1 of 3) above
Sequence (P0C0L4 20-675 limits assumed, chain 2 of 4): as the sequence (P0C0L4 20-675 limits assumed, chain 2 of 3) above
Sequence (P0C0L4 1454-1744 limits assumed, chain 3 of 4): as the sequence (P0C0L4 1454-1744 limits assumed, chain 3 of 3) above
Sequence (P06681 244-752 limits assumed, chain 4 of 4, further chain): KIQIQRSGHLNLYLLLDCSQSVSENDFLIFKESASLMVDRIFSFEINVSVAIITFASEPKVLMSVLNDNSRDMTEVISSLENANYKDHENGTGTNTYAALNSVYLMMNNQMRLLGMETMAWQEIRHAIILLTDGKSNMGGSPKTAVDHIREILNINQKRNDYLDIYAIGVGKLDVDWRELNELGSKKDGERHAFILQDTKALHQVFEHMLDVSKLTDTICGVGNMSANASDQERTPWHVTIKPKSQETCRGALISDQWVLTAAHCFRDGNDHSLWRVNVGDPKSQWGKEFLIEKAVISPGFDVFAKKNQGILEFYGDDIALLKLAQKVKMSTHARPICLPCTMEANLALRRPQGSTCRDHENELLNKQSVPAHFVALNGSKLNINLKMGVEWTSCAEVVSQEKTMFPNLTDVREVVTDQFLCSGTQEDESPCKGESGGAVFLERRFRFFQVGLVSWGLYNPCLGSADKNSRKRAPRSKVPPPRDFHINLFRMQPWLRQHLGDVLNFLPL

Binder	CP-DAA IC50 [µM]	Relative CP-DAA
B1	9.2	1.7
B2	23.7	0.7
B3	30.7	0.5
B4	22.6	0.7
B5	17.7	0.9
B6	21	0.75
B7	15.5	1
B8	> 100	6.2
B9	12.7	1.3
